29 molecules from patent publication US20150087812A1 (Janssen / Centocor, published 2015) can be followed below.

Residue numbers refer to the chain shown, from its start.

The labels stand for the following.
B1: Fab F123 (VH H120, VL PH9L4) (Fab, V domains shown)
VH: QVQLVQSGAEVKKPGSSVKVSCKASGGTFSSYAISWVRQAPGQGLEWMGGIIPIFGTANYAQKFQGRVTITADESTSTAYMELSSLRSEDTAVYYCARHDVNSLWAYFDYWGQGTLVTVSS
VL: not shown
notes: Soluble Fab-His
B2: Fab F142 (VH H146, VL L121) (Fab, V domains shown)
VH: B1 VH with H99G, V101Y, S103A, L104I, W105Y, A106Y, Y107A, F108L
VL: DIQMTQSPSSLSASVGDRVTITCRASQSISSYLNWYQQKPGKAPKLLIYAASSLQSGVPSRFSGSGSGTDFTLTISSLQPEDFATYYCQQPISFPYTFGQGTKVEIK
notes: Soluble Fab-His
B3: Fab F97 (VH H90, VL IFWL124) (Fab, V domains shown)
VH: QVQLVQSGAEVKKPGSSVKVSCKASGGTFSSYAISWVRQAPGQGLEWMGGIIPIFGTANYAQKFQGRVTITADESTSTAYMELSSLRSEDTAVYYCARDASTYGDLDYWGQGTLVTVSS
VL: B2 VL with S30D, S31G, Y32W, P91S, I92Y, F94T, Y96L
notes: Soluble Fab-His; converted to mAb B18
B4: Fab F53 (VH H2, VL L30) (Fab, V domains shown)
VH: B3 VH with A100D, S101L, T102P, Y103L, D105R
VL: EIVLTQSPATLSLSPGERATLSCRASQSVNKHLAWYQQKPGQAPRLLIYKASNRATGIPARFSGSGSGTDFTLTISSLEPEDFAVYYCQQGIRAPYTFGQGTKVEIK
notes: Soluble Fab-His; converted to mAb B4; also called P53
B5: Fab F86 (VH H80, VL L80) (Fab, V domains shown)
VH: B1 VH with H99P, D100I, V101G, N102T, S103G, L104Y, W105Y, A106G, Y107F
VL: B2 VL with S30A, S31K, Y32W, A50F, P91S, I92Y, F94T, Y96L
notes: Soluble Fab-His; converted to mAb B7
B6: Fab F71 (VH H2, VL L65) (Fab, V domains shown)
VH: B3 VH with A100D, S101L, T102P, Y103L, D105R
VL: B4 VL with N30S, K31D, H32Y, K50D, I92S, R93D, Y96L
notes: Soluble Fab-His
B7: Fab F45 (VH H2, VL L34) (Fab, V domains shown)
VH: B3 VH with A100D, S101L, T102P, Y103L, D105R
VL: B4 VL with N30S, K31S, H32W, K50Y, G91F, I92K, R93G, A94W, Y96F
notes: Soluble Fab-His
B8: Fab F104 (VH H96, VL IFWL124) (Fab, V domains shown)
VH: B3 VH with T57N, A58T, A100I, T102G
VL: B2 VL with S30D, S31G, Y32W, P91S, I92Y, F94T, Y96L
notes: Soluble Fab-His; converted to mAb B14
B9: Fab F43 (VH H2, VL L44) (Fab, V domains shown)
VH: B3 VH with A100D, S101L, T102P, Y103L, D105R
VL: B4 VL with N30A, H32F, G91Y, I92S, R93T, A94W, Y96F
notes: Soluble Fab-His
B10: Fab F2 (VH H2, VL L1) (Fab, V domains shown)
VH: B3 VH with A100D, S101L, T102P, Y103L, D105R
VL: B4 VL with N30R, K31N, H32F, K50D, I92Y, Y96I
notes: Soluble Fab-His
B11: Fab F35 (VH H25, VL L29) (Fab, V domains shown)
VH: B3 VH with A100D, S101L, T102A, Y103L, D105R
VL: B4 VL with N30A, H32F, I92H, R93G, A94W, Y96R
notes: Soluble Fab-His
B12: Fab F13 (VH H2, VL L11) (Fab, V domains shown)
VH: B3 VH with A100D, S101L, T102P, Y103L, D105R
VL: B4 VL with N30A, K31D, H32W, K50N, G91Y, A94W, Y96I
notes: Soluble Fab-His
B13: Fab F73 (VH H66, VL L67) (Fab, V domains shown)
VH: B3 VH with A100L, S101Y, T102I
VL: B2 VL with S30G, S31G, Y32W, A50T, P91S, I92Y, S93T, F94Y, Y96I
notes: Soluble Fab-His; converted to mAb B6
B14: Fab F34 (VH H2, VL L28) (Fab, V domains shown)
VH: B3 VH with A100D, S101L, T102P, Y103L, D105R
VL: B4 VL with N30A, H32F, G91F, I92N, R93S, Y96I
notes: Soluble Fab-His; converted to mAb B5
B15: Fab F3 (VH H2, VL L2) (Fab, V domains shown)
VH: B3 VH with A100D, S101L, T102P, Y103L, D105R
VL: B4 VL with K31N, H32F, K50G, G91F, I92K, R93G, Y96L
notes: Soluble Fab-His
B16: Fab F102 (VH H2, VL L91) (Fab, V domains shown)
VH: B3 VH with A100D, S101L, T102P, Y103L, D105R
VL: B4 VL with N30A, K31D, H32W, G91S, I92F, A94W, Y96L
notes: Soluble Fab-His
B17: Fab F11 (VH H2, VL L9) (Fab, V domains shown)
VH: B3 VH with A100D, S101L, T102P, Y103L, D105R
VL: B4 VL with N30A, K31D, H32F, K50T, I92S, R93T
notes: Soluble Fab-His
B18: Fab F62 (VH H54, VL GCGL18) (Fab, V domains shown)
VH: B3 VH with D99E, A100D, S101V, T102A, Y103L, D105R
VL: not shown
notes: Soluble Fab-His
B19: Fab F50 (VH H25, VL L46) (Fab, V domains shown)
VH: B3 VH with A100D, S101L, T102A, Y103L, D105R
VL: B4 VL with N30S, K31S, H32F, K50T, G91S, I92H, Y96W
notes: Soluble Fab-His
B20: Fab F32 (VH H7, VL PH9L4) (Fab, V domains shown)
VH: B3 VH with A100D, S101V, T102A, Y103L, D105R
VL: not shown
notes: Soluble Fab-His
B21: Fab F143 (VH H148, VL H2RL12) (Fab, V domains shown)
VH: B3 VH with A100F, T102V, L106F
VL: B2 VL with S30A, S31K, Y32W, P91S, I92Y, F94T, Y96L
notes: Soluble Fab-His; converted to mAb B13
B22: Fab F7 (VH H2, VL L6) (Fab, V domains shown)
VH: B3 VH with A100D, S101L, T102P, Y103L, D105R
VL: B4 VL with K31S, H32W, K50Y, I92H, A94W, Y96F
notes: Soluble Fab-His
B23: Fab F8 (VH H2, VL L7) (Fab, V domains shown)
VH: B3 VH with A100D, S101L, T102P, Y103L, D105R
VL: B4 VL with N30R, K31D, H32W, K50G, I92D, R93G, A94W, Y96W
notes: Soluble Fab-His
B24: Fab F96 (VH H89, VL IFWL124) (Fab, V domains shown)
VH: B3 VH with A100S, T102A, L106F
VL: B2 VL with S30D, S31G, Y32W, P91S, I92Y, F94T, Y96L
notes: Soluble Fab-His; converted to mAb B8
B25: Fab F9 (VH H2, VL L8) (Fab, V domains shown)
VH: B3 VH with A100D, S101L, T102P, Y103L, D105R
VL: B4 VL with N30A, H32D, K50T, R93N, A94W, Y96F
notes: Soluble Fab-His
B26: Fab F17 (VH H11, VL L14) (Fab, V domains shown)
VH: EVQLVQSGAEVKKPGESLKISCKGSGYSFTSYWIGWVRQMPGKGLEWMGIIYPGDSDTRYSPSFQGQVTISADKSISTAYLQWSSLKASDTAMYYCARPYGTFDYWGQGTLVTVSS
VL: B4 VL with N30A, K31D, H32S, G91S, I92N, R93G, A94W, Y96R
notes: Soluble Fab-His (E. coli supernatant); converted to mAb B3
B27: Fab F121 (VH H115, VL L106) (Fab, V domains shown)
VH: B1 VH with H99G, V101A, S103A, W105Y, A106D
VL: B4 VL with N30S, K31N, H32W, K50T, G91R, I92Y, R93T, Y96W
notes: Soluble Fab-His
B28: Fab F133 (VH H134, VL L117) (Fab, V domains shown)
VH: QVQLVQSGAEVKKPGSSVKVSCKASGGTFSSYAISWVRQAPGQGLEWMGGIIPIFGTANYAQKFQGRVTITADESTSTAYMELSSLRSEDTAVYYCARGADSNAVRLVGFDYWGQGTLVTVSS
VL: EIVLTQSPGTLSLSPGERATLSCRASQSVAYSSLAWYQQKPGQAPRLLIYAASSRATGIPDRFSGSGSGTDFTLTISRLEPEDFAVYYCQQSNTPPLTFGQGTKVEIK
notes: Soluble Fab-His
B29: Fab F144 (VH H149, VL L122) (Fab, V domains shown)
VH: QVQLVQSGAEVKKPGSSVKVSCKASGGTFSSYGISWVRQAPGQGLEWMGGIIPIFGTANYAQKFQGRVTITADESTSTAYMELSSLRSEDTAVYYCAREDVNYISTYSEFDYWGQGTLVTVSS
VL: B28 VL with A30R, Y31K, S33G, A51N, S92A, N93T, T94K
notes: Soluble Fab-His

The first assay addresses T1, recombinant human ATX beta isoform with N-terminal purification tag (human, UniProt Q13822 49-863). In words: ELISA, Fab-His captured by anti-Fd, 5 nM biotinylated human ATX beta. The method, then: (§1) Fabs were captured on black MaxiSorp plates (Nunc, Cat. No. 437111) coated with 1 μg/ml sheep anti-human Fd (CH1) antibody (The Binding Site, Cat. No. PC075). Plates were washed and biotinylated human ATX was added to the captured Fabs at 5 nM. Incubation was carried out for 1 hour at room temperature with gentle shaking. Plates were washed, SA-HRP (Invitrogen, Cat. No. 43-4323) was added and chemiluminescent detection carried out.
(§2) Clones with binding above background were sequenced and unique clones identified. […] These clones were identified with binding signal to human ATX at least 6-fold above the background. Table 3 lists the identifier for VH and VL (Peptide ID) and the combination of both (Fab ID) sorted by the Fab ELISA binding data.
As for B1, the “Fab Binding” value was 1.4e+06 relative chemiluminescence units.
As for B2, the “Fab Binding” value is 1.3e+06 relative chemiluminescence units.
Still for that read-out and setting: then B3, with 5.8e+06 relative chemiluminescence units.
Same read-out and setting: the same measure for B4: 2.4e+06 relative chemiluminescence units; for B5: 4.2e+06 relative chemiluminescence units; for B6: 1.7e+06 relative chemiluminescence units.
For the molecule B7, the “Fab Binding” value was 1.2e+06 relative chemiluminescence units.
On to B8, for which the “Fab Binding” value was 5.1e+06 relative chemiluminescence units.
For the molecule B9, the “Fab Binding” value is 980000 relative chemiluminescence units.
Still for that read-out and setting: the same measure for B10: 1.5e+06 relative chemiluminescence units.
B11: the “Fab Binding” value is 2.1e+06 relative chemiluminescence units.
On the same count and under the same terms, the same measure for B12: 1.1e+06 relative chemiluminescence units.
As for B13, the “Fab Binding” value was 1.7e+07 relative chemiluminescence units.
On the same count and under the same terms, the same measure for B14: 2.3e+06 relative chemiluminescence units; for B15: 1.4e+06 relative chemiluminescence units.
Still for that read-out and setting: then B16, with 1.3e+06 relative chemiluminescence units; and B17, with 1.8e+06 relative chemiluminescence units.
For B18, the “Fab Binding” value was 1.6e+06 relative chemiluminescence units.
The same measure, in the same setting: the same measure for B19: 1.9e+06 relative chemiluminescence units.
The same measure, in the same setting: the same measure for B20: 2e+06 relative chemiluminescence units; for B21: 4.9e+06 relative chemiluminescence units.
In the case of B22, the “Fab Binding” value was 1.8e+06 relative chemiluminescence units.
With B23, the “Fab Binding” value was 1.6e+06 relative chemiluminescence units.
Same read-out and setting: the same measure for B24: 5.9e+06 relative chemiluminescence units; for B25: 1e+06 relative chemiluminescence units.
In the case of B26, the “Fab Binding” value was 2.4e+07 relative chemiluminescence units.
With B27, the “Fab Binding” value was 1.4e+06 relative chemiluminescence units.
B28: the “Fab Binding” value was 1.2e+06 relative chemiluminescence units.
Still for that read-out and setting: then B29, with 1.2e+06 relative chemiluminescence units.

The target of a further assay is T1, recombinant human ATX beta isoform with …. Put plainly: Fab-His ELISA. The method, then: as §1, §2
As to B1, the fold above background was at least 6 fold.
Same read-out and setting: the same measure for B2: at least 6 fold; for B3: at least 6 fold.
Still for that read-out and setting: the same measure for B4: at least 6 fold; for B5: at least 6 fold.
The same measure, in the same setting: the same measure for B6: at least 6 fold.
In the case of B7, the fold above background is at least 6 fold.
Still for that read-out and setting: the same measure for B8: at least 6 fold; for B9: at least 6 fold; for B10: at least 6 fold.
As for B11, the fold above background was at least 6 fold.
Still for that read-out and setting: then B12, with at least 6 fold; and B13, with at least 6 fold.
Regarding B14, the fold above background is at least 6 fold.
With B15, the fold above background was at least 6 fold.
With B16, the fold above background is at least 6 fold.
Same read-out and setting: the same measure for B17: at least 6 fold.
Consider B18, for which the fold above background was at least 6 fold.
Consider B19, for which the fold above background is at least 6 fold.
Still for that read-out and setting: then B20, with at least 6 fold.
Still for that read-out and setting: the same measure for B21: at least 6 fold; for B22: at least 6 fold.
Same read-out and setting: the same measure for B23: at least 6 fold; for B24: at least 6 fold.
Consider B25, for which the fold above background is at least 6 fold.
Regarding B26, the fold above background was at least 6 fold.
Turning to B27, the fold above background was at least 6 fold.
On the same count and under the same terms, then B28, with at least 6 fold; and B29, with at least 6 fold.
